# Data taken from patent publication US20210032664, “ENGINEERED MEGANUCLEASES WITH RECOGNITION SEQUENCES FOUND IN THE HUMAN BETA-2 MICROGLOBULIN GENE” (Precision Biosciences, Inc., published 2021).
# T1: B2M 13-14x.378 (Artificial Sequence)
# T1 chain: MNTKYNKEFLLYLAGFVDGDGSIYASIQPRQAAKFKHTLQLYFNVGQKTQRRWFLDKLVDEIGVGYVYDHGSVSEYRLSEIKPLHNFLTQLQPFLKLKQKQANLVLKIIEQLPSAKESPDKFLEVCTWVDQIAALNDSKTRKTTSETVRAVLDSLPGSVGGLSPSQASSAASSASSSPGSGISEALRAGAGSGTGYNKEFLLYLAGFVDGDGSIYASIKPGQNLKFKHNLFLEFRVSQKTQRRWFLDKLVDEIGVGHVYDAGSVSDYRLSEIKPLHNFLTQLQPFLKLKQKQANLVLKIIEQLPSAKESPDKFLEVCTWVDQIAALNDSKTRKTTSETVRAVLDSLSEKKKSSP
# T2: B2M 13-14x.287 (Artificial Sequence)
# T2 chain: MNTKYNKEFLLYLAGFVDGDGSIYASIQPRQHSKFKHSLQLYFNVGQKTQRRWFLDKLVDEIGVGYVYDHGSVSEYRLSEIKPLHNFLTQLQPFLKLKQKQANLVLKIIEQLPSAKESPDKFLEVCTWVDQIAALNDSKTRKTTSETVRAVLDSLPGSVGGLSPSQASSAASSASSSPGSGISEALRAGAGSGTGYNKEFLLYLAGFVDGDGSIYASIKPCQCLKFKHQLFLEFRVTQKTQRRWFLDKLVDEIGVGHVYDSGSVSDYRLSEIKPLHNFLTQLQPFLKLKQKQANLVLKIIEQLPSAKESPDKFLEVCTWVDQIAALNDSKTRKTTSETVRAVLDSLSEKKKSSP
# T3: B2M 13-14x.556 (Artificial Sequence)
# T3 chain: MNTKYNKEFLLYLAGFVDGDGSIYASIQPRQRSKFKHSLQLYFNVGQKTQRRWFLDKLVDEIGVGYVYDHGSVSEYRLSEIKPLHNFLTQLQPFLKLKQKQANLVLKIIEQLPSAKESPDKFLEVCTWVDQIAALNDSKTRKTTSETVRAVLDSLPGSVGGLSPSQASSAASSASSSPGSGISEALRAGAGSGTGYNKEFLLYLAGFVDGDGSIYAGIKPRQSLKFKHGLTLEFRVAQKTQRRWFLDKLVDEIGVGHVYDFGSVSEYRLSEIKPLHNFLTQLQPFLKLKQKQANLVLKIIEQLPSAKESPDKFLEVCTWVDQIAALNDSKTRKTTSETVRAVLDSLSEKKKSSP
# T4: B2M 13-14x.281 (Artificial Sequence)
# T4 chain: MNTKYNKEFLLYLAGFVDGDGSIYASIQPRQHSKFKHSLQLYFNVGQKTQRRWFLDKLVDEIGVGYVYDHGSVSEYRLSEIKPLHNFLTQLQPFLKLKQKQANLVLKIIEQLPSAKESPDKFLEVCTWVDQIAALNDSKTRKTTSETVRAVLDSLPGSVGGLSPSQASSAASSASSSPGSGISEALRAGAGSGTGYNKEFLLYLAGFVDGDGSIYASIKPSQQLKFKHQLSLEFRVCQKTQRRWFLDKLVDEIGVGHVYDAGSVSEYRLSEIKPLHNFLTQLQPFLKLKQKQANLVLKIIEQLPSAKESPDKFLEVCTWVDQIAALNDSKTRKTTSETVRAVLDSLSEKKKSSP
# T5: B2M 13-14x.479 (Artificial Sequence)
# T5 chain: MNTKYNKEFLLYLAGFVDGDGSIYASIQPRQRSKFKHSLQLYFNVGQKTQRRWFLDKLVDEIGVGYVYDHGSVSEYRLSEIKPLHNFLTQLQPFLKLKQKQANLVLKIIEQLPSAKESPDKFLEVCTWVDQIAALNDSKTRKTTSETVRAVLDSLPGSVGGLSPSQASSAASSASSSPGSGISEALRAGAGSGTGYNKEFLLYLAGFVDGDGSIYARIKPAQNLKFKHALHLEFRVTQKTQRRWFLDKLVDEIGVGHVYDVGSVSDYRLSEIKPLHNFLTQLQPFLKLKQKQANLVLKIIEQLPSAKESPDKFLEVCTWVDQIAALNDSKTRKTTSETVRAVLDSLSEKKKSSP
# T6: B2M 13-14x.551 (Artificial Sequence)
# T6 chain: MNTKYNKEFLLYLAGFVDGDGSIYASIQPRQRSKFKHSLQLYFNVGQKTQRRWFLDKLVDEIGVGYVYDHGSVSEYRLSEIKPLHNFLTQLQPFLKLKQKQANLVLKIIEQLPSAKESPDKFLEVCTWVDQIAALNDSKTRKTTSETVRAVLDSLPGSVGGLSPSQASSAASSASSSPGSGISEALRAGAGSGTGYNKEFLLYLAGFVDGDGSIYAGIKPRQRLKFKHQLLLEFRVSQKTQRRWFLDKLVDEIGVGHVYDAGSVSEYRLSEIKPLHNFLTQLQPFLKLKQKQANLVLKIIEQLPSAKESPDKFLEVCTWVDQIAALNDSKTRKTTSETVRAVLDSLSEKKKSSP
# T7: B2M 13-14x.377 (Artificial Sequence)
# T7 chain: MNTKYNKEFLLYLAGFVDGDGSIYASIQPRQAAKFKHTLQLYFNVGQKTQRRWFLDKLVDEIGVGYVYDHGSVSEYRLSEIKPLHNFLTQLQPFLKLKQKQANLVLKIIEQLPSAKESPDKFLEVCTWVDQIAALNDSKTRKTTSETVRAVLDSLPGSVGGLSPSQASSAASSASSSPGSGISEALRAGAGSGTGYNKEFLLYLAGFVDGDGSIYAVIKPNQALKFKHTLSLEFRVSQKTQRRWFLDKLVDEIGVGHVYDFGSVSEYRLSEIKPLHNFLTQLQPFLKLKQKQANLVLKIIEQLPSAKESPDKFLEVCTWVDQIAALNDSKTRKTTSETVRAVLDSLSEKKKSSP
# Columns and labels:
# Test in all cases: cell_activity; human T cells, 1 ug mRNA, day 3
# Conditions in all cases: tags: N-terminal SV40 NLS
# [1] = target: T1, B2M 13-14x.378
# Description: (§1) Donor human T cells were stimulated with anti-CD3 and anti-CD28 antibodies for 3 days, then electroporated with mRNA encoding a given B2M 13-14 meganuclease (1 μg) using the Amaxa 4D-Nucleofector (Lonza) according to the manufacturer's instructions. To look for the loss of B2M surface expression, cells were stained with an antibody recognizing β-2 microglobulin (BD Biosciences) as well as an antibody recognizing CD3 (BioLegend), a marker of T cells.
# [2] = target: T2, B2M 13-14x.287
# Description: as §1
# [3] = target: T3, B2M 13-14x.556
# Description: as §1
# [4] = target: T4, B2M 13-14x.281
# Description: as §1
# [5] = target: T5, B2M 13-14x.479
# Description: as §1
# [6] = target: T6, B2M 13-14x.551
# Description: as §1
# [7] = target: T7, B2M 13-14x.377
# Description: as §1
binder,measurement,setting,value
B2M 13-14 recognition sequence (dsDNA) DNA 1: CTATCTCTTGTACTACACTGAA DNA 2: TTCAGTGTAGTACAAGAGATAG,activity,[1],3.54 % B2M-negative
same,activity,[2],75.7 % B2M-negative
same,activity,[3],11.8 % B2M-negative
same,activity,[4],53.6 % B2M-negative
same,activity,[5],67.2 % B2M-negative
same,activity,[6],40.3 % B2M-negative
same,activity,[7],75.9 % B2M-negative
